Source: patent US20250154283A1 (published 2025)

T1: biotinylated cynomolgus monkey VWF cysteine knot (CK) domain construct (cynomolgus monkey, biotinylated in vitro (BirA) on the biotinylation tag; one N-glycan)
T1 construct: Expressed in HEK293 EBNA cells; disulfide-linked homodimer; also called cyno VWF CK; cyno VWF CK domain; not shown: in vitro biotinylation tag, HRV-3C site and 3 VWF residues before the CK domain
T1 chain: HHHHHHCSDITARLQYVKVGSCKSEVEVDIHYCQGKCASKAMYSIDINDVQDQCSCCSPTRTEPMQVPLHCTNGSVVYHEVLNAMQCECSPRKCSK


Key:
[1] = molecular target: T2, biotinylated human VWF cysteine knot (CK) domain construct (human, UniProt P04275 2724-2813, biotinylated in vitro (BirA) on the biotinylation tag; one N-glycan); assay: SPR, scFv captured via anti-SV5, CK domain injected, pH 5.5, apparent Kd;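 note: scFvs from crude yeast supernatants captured on chip-bound anti-SV5 antibody, Kd computed as koff divided by kon, dimeric CK construct likely makes affinity appear higher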
T2 construct: Expressed in HEK293 EBNA cells; disulfide-linked homodimer; also called human VWF CK; human VWF CK domain; not shown: in vitro biotinylation tag, HRV-3C site and 3 VWF residues before the CK domain

[2] = molecular target: T2, biotinylated human VWF cysteine knot …; assay: SPR, scFv captured via anti-SV5, CK domain injected, pH 7.4, apparent Kd;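 note: scFvs from crude yeast supernatants printed on an amine-coupled anti-SV5 lawn, Kd computed as koff over kon, likely overestimating affinity because the CK construct is dimeric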
Text: (§1) Briefly, a sensor chip was activated and coupled with an anti-SV5 mouse monoclonal antibody using amine coupling. The soluble scFvs in crude yeast supernatants were printed on the anti-SV5 lawn. […] From the measured association (kₒₙ) and dissociation (koff) rate constants, an apparent equilibrium dissociation constant (Kd=koff/kₒₙ) was estimated. Due to the dimeric state of the CK construct and consequent possibility for simultaneous binding of captured scFv to both monomers in the CK dimer, the SPR setup was expected to overestimate the binding affinity.

[3] = molecular target: T1, biotinylated cynomolgus monkey VWF …; assay: as above
Text: as §1

Row | Binder | Kd [1] [nM] | Kd [2] [nM] | Kd [3] [nM]
1 | Lib4_P2_A1_scFv (scFv, VH-linker-VL; not shown: C-terminal 3xFLAG and SV5 tags) scFv: QVQLQESGPGLVKPSQTLSLTCTVSGASFGDNYWSWIRQPPGKGLEWIGYIDTSGSSDYNPSLKSRVTMSVDTSKNQFSLKVNSVTAADTAVYYCARVSWGYYAMDVWGQGTTVTVSSSGGSTITSYNVYYTKLSSSGTEIVMTQSPATLSLSPGERATLSCRASQGISGRLAWYQQKPGQAPRLLIYDVSTRATGIPARFSGSGSGTDFTLTISSLEPEDFAVYYCQQYDTSAPLTFGGGTKVEIK | 0.235 | 1.2 | 0.031
2 | Lib4_P2_B4_scFv (scFv, VH-linker-VL; not shown: C-terminal 3xFLAG and SV5 tags) scFv: QVQLQESGPGLVKPSQTLSLTCTVSGASLGDQYWSWIRQPPGKGLEWIGYIHPSGDFDYNPSLKSRVTMSVDTSKNQFSLKVNSVTAADTAVYYCARHYSSSWYGTWYFDLWGRGTLVTVSSSGGSTITSYNVYYTKLSSSGTEIVMTQSPATLSLSPGERATLSCRASQNIGTNLAWYQQKPGQAPRLLIYDASVRAAGIPARFSGSGSGTDFTLTISSLEPEDFAVYYCQQSLTTPLTFGGGTKVEIK | 0.225 | 1.07 | 0.096
3 | Lib8_P4_D4_scFv (scFv, VH-linker-VL; not shown: C-terminal 3xFLAG and SV5 tags) scFv: QVQLVQSGAEVKKPGASVKVSCKVSGDTLSNYAIHWVRQAPGKGLEWMGGINPNAGTTIYAQKFQGRVTMTEDTSTDTAYMELSSLKSEDTAVYYCARDSSSWCPVGYYYYYMDVWGKGTTVTVSSSGGSTITSYNVYYTKLSSSGTDIQMTQSPSSVSASVGDRVTITCRASQSIGDFLAWYQQKPGKAPKLLIYDASHLQTGVPSRFSGSGSGTDFTLTISSLQPEDFANYYCQQTSTIPPTFGGGTKVEIK | 0.397 | 0.917 | 0.206
4 | Lib8_P4_C11_scFv (scFv, VH-linker-VL; not shown: C-terminal 3xFLAG and SV5 tags) scFv: QVQLVQSGAEVKKPGASVKVSCKVSGDTLSNYAIHWVRQAPGKGLEWMGGINPNAGTTIYAQKFQGRVTMTEDTSTDTAYMELSSLKSEDTAVYYCARDSSSWCPVGYYYYYMDVWGKGTTVTVSSSGGSTITSYNVYYTKLSSSGTDIQMTQSPSSVSASVGDRVTITCRASQSIGDFLAWYQQKPGKAPKLLIYDASHLQTGVPSRFSGSGSGTDFTLTISSLQPEDFANYYCQQTSTIPPTFGGGTKVEIK | 0.617 | 1.08 | 0.155
5 | Lib1_P1_A1_scFv (scFv, VH-linker-VL; not shown: C-terminal 3xFLAG and SV5 tags) scFv: QVQLVQSGAEVKKPGASVKVSCKVSGDTLSNYAIHWVRQAPGKGLEWMGGINPNAGTTIYAQKFQGRVTMTEDTSTDTAYMELSSLKSEDTAVYYCARDSSSWSQFGYYYYYMDVWGKGTTVTVSSSGGSTITSYNVYYTKLSSSGTDIQMTQSPSSVSASVGDRVTITCRASQSIGDFLAWYQQKPGKAPKLLIYDASHLQTGVPSRFSGSGSGTDFTLTISSLQPEDFANYYCQQTSTIPPTFGGGTKVEIK | 0.202 | 1.38 | 1.08
6 | 4142_Lib1_scFv (scFv, VH-linker-VL; not shown: C-terminal 3xFLAG and SV5 tags) scFv: QVQLVQSGAEVKKPGASVKVSCKVSGYPFTSSGIHWVRQAPGKGLEWMGGVIPLFGTANYAQKFQGRVTMTEDTSTDTAYMELSSLKSEDTAVYYCARIRVSSGWYRDYGMDVWGQGTTVTVSSSGGSTITSYNVYYTKLSSSGTDIQMTQSPSSVSASVGDRVTITCRASQDITNDLAWYQQKPGKAPKLLIYDASRLQSGVPSRFSGSGSGTDFTLTISSLQPEDFANYYCQQTFTTPLTFGGGTKVEIK | 0.634 | 0.839 | 0.999
7 | 4029_Lib1_scFv (scFv, VH-linker-VL; not shown: C-terminal 3xFLAG and SV5 tags) scFv: QVQLVQSGAEVKKPGASVKVSCKVSGYPFTSSGIHWVRQAPGKGLEWMGGVIPLFGTANYAQKFQGRVTMTEDTSTDTAYMELSSLKSEDTAVYYCARIRVSSGWYRDYGMDVWGQGTTVTVSSSGGSTITSYNVYYTKLSSSGTDIQMTQSPSSVSASVGDRVTITCRASQSIGDFLAWYQQKPGKAPKLLIYDASHLQTGVPSRFSGSGSGTDFTLTISSLQPEDFANYYCQQTSTIPPTFGGGTKVEIK | 2.58 | 4.27 | 4.67

Continued by falling Kd [1], values first:

Row | Kd [1] [nM] | Kd [2] [nM] | Kd [3] [nM] | Binder
8 | 0.737 | 1.13 | 0.689 | 3964_Lib4_scFv (scFv, VH-linker-VL; not shown: C-terminal 3xFLAG and SV5 tags) scFv: QVQLQESGPGLVKPSQTLSLTCTVSGASISTHSWSWIRQPPGKGLEWIGYINPSGDIDYNPSLKSRVTMSVDTSKNQFSLKVNSVTAADTAVYYCARGRTGFDSSGFVVGAFDIWGQGTMVTVSSSGGSTITSYNVYYTKLSSSGTEIVMTQSPATLSLSPGERATLSCRASQNVNDNLAWYQQKPGQAPRLLIYDASTRPTGIPARFSGSGSGTDFTLTISSLEPEDFAVYYCQQYLTIPRTFGGGTKVEIK
9 | 0.639 | 0.915 | 0.536 | Lib1_P1_E9_scFv (scFv, VH-linker-VL; not shown: C-terminal 3xFLAG and SV5 tags) scFv: QVQLVQSGAEVKKPGASVKVSCKVSGYTFTSHIIHWVRQAPGKGLEWMGGMNPYSNKAIYAQKFQGRVTMTEDTSTDTAYMELSSLKSEDTAVYYCARDASDYGDYGYYYYYMDVWGKGTTVTVSSSGGSTITSYNVYYTKLSSSGTDIQMTQSPSSVSASVGDRVTITCRASQYIGNDLAWYQQKPGKAPKLLIYEASQRPSGVPSRFSGSGSGTDFTLTISSLQPEDFANYYCQQQYNYPLTFGGGTKVEIK
10 | 0.567 | 0.958 | 0.38 | 4166_Lib4_scFv (scFv, VH-linker-VL; not shown: C-terminal 3xFLAG and SV5 tags) scFv: QVQLQESGPGLVKPSQTLSLTCTVSGESFSGHFWSWIRQPPGKGLEWIGYISQSGRTDYNPSLKSRVTMSVDTSKNQFSLKVNSVTAADTAVYYCARTLPRIQLWSPRGAFDIWGQGTMVTVSSSGGSTITSYNVYYTKLSSSGTEIVMTQSPATLSLSPGERATLSCRASQSLGRSLAWYQQKPGQAPRLLIYDASHRATGIPARFSGSGSGTDFTLTISSLEPEDFAVYYCQQYVSYPLTFGGGTKVEIK
11 | 0.519 | 1.18 | 0.922 | 2738_Lib1_scFv (scFv, VH-linker-VL; not shown: C-terminal 3xFLAG and SV5 tags) scFv: QVQLVQSGAEVKKPGASVKVSCKVSGYTLTDLPIHWVRQAPGKGLEWMGGINPFLGTTIYAQKFQGRVTMTEDTSTDTAYMELSSLKSEDTAVYYCARGVDMLATARDYYYMAIWGKGTTVTVSSSGGSTITSYNVYYTKLSSSGTDIQMTQSPSSVSASVGDRVTITCRASQSIGNDLAWYQQKPGKAPKLLIYGASMRATGVPSRFSGSGSGTDFTLTISSLQPEDFANYYCQQYASDPLTFGGGTKVEIK
12 | 0.412 | 1.16 | 0.018 | 3552_Lib8_scFv (scFv, VH-linker-VL; not shown: C-terminal 3xFLAG and SV5 tags) scFv: EVQLVESGGGLVQPGRSLRLSCAASEFTFGDYDMHWVRQAPGKGLEWVSAISSSGSNRDYADSVEGRFTISRDNAKNSLYLQMNSLRAEDTAVYYCARDAWFGDAFDIWGQGTMVTVSSSGGSTITSYNVYYTKLSSSGTDIQMTQSPSSLSASVGDRVTITCRASESVSSWLAWYQQKPGKAPKLLIYGASTLEGGVPSRFSGSGSGTDFTLTISSLQPEDVATYYCQQSYSFPDFGGGTKVEIK
13 | 0.269 | 1.37 | 0.441 | 189_Lib4_scFv (scFv, VH-linker-VL; not shown: C-terminal 3xFLAG and SV5 tags) scFv: QVQLQESGPGLVKPSQTLSLTCTVSGVTFSSYGWSWIRQPPGKGLEWIGYVDTSGSTDYNPSLKSRVTMSVDTSKNQFSLKVNSVTAADTAVYYCARTTYYYDSSGFARGWFDPWGQGTLVTVSSSGGSTITSYNVYYTKLSSSGTEIVMTQSPATLSLSPGERATLSCRASQSVPSSHLAWYQQKPGQAPRLLIYDATNRAAGIPARFSGSGSGTDFTLTISSLEPEDFAVYYCQQYDNWPSPSFGGGTKVEIK
